Test results as given in paper PMC4904203.

Legend:
[1] = target: nTRIP6 fused to the C-terminal half of Venus (VC); assay: split reporter (BiFC, NanoBiT); Venus BiFC: VN and VC fusions co-transfected into C2C12 myoblasts with mCherry as transfection control; confocal imaging 24 h after transfection; cells with Venus complementation counted as percent of mCherry-positive cells (mean ± SD, three experiments); for Fig. 6a cells were first transfected with Trip6 siRNA or control siRNA; conditions: scale: %
[2] = target: MEF2C fused to the C-terminal half of Venus (VC) (UniProt Q8CFN5); assay: as above
UniProt Q8CFN5, sequence (Q8CFN5 whole entry, the tested form may be a part): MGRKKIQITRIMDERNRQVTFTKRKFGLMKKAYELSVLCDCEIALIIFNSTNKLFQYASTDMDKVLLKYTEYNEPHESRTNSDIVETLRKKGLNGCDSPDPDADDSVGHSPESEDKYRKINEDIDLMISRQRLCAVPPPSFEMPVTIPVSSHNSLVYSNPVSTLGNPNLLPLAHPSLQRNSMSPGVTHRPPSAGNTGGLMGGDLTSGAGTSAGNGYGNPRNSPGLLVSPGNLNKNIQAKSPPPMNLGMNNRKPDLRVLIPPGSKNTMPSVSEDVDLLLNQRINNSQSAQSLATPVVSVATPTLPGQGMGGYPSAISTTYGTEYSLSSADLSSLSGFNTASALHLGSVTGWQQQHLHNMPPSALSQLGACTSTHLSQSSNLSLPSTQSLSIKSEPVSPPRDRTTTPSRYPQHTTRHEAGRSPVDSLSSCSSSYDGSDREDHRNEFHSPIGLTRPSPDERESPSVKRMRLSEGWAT

percent of transfected cells with Venus complementation [1] | percent of transfected cells with Venus complementation [2] [%] | Substance
79.5 | – | HDAC5-Flag fused to the N-terminal half of Venus (VN) (from UniProt Q9UQL6 1-1122) (enzyme)
– | 70.6 | nTRIP6 (nuclear isoform of TRIP6) fused to the N-terminal half of Venus (VN) (natural protein)
– | 65.5 | nTRIP6 lacking the LIM domains (pre-LIM) fused to VN (domain or fragment)
